Assay results from PMC3947485.

Target: TRAP1 from zebrafish (D. rerio), full-length mature protein (D. rerio)
Experiment: crystal structure

Substance: TRAP1 from zebrafish (D. rerio), full-length mature protein (natural protein)
- stoichiometry N: 2
